# Measured values published in PMC10511717.
# Molecular target: RANKL of the osteoclast differentiation medium (UniProt O35235)
# UniProt O35235, sequence (O35235 whole entry): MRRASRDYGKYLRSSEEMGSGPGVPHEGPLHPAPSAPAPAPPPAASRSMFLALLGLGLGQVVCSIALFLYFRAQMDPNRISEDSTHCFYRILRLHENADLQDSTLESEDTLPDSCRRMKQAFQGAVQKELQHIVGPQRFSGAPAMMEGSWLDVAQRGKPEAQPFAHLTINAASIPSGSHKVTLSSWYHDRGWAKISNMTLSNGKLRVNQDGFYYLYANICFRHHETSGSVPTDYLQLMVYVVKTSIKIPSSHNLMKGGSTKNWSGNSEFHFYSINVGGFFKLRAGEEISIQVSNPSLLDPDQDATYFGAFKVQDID
binder,measurement,value
recombinant mouse OMD (natural protein) QYEAYRWDDDYDQEPNEDYDPEFQFHQNIEYGVPFYNNILGCAKECFCPTNFPTSMYCDNRKLKTIPIIPMHIQQLNLQFNDIEAVTANSFINATHLKEINLSHNKIKSQKIDYGVFAKLSNLQQLHLEHNNLEEFPFPLPKSLERLLLGYNEISILPTNAMDGLVNVTMLDLCYNHLSDSMLKEKTLSKMEKLMQLNLCNNRLESMPLGLPSSLMYLSLENNSISSIPDNYFDKLPKLHALRISHNKLEDIPYDIFNLSNLIELNVGHNKLKQAFYIPRNLEHLYLQNNEIESINVTMICPSPDPVHHHHLTYLRVDQNKLKEPISSYIFFCFPRIHSIYYGEQRSTNGETIQLKTQVFRSYQEEEEEDDHDSQDNTLEGQEVSDEHYNSHYYEMQEWQDTI,osteoclast number (TRAP staining after 4 days) in primary murine osteoclast culture differentiated with M-CSF and RANKL; OMD at 10 and 40 ng/mL preincubated with RANKL and M-CSF (% reduction of osteoclast number),50
